Article PMC10460389, “Design of 8-mer peptides that block Clostridioides difficile toxin A in intestinal cells” (Communications Biology, 2023)
Ends that are not written are not given here.

Target: T1, Clostridioides difficile Toxin A labelled with Alexa Fluor 594 (Clostridioides difficile, UniProt P16154 1-2710)
T1 construct: also called TcdA-AF594; red fluorescently labeled TcdA
Assay: bead-based fluorescence imaging
Details: both partners purified

T1 sequence (P16154 whole entry, looked up): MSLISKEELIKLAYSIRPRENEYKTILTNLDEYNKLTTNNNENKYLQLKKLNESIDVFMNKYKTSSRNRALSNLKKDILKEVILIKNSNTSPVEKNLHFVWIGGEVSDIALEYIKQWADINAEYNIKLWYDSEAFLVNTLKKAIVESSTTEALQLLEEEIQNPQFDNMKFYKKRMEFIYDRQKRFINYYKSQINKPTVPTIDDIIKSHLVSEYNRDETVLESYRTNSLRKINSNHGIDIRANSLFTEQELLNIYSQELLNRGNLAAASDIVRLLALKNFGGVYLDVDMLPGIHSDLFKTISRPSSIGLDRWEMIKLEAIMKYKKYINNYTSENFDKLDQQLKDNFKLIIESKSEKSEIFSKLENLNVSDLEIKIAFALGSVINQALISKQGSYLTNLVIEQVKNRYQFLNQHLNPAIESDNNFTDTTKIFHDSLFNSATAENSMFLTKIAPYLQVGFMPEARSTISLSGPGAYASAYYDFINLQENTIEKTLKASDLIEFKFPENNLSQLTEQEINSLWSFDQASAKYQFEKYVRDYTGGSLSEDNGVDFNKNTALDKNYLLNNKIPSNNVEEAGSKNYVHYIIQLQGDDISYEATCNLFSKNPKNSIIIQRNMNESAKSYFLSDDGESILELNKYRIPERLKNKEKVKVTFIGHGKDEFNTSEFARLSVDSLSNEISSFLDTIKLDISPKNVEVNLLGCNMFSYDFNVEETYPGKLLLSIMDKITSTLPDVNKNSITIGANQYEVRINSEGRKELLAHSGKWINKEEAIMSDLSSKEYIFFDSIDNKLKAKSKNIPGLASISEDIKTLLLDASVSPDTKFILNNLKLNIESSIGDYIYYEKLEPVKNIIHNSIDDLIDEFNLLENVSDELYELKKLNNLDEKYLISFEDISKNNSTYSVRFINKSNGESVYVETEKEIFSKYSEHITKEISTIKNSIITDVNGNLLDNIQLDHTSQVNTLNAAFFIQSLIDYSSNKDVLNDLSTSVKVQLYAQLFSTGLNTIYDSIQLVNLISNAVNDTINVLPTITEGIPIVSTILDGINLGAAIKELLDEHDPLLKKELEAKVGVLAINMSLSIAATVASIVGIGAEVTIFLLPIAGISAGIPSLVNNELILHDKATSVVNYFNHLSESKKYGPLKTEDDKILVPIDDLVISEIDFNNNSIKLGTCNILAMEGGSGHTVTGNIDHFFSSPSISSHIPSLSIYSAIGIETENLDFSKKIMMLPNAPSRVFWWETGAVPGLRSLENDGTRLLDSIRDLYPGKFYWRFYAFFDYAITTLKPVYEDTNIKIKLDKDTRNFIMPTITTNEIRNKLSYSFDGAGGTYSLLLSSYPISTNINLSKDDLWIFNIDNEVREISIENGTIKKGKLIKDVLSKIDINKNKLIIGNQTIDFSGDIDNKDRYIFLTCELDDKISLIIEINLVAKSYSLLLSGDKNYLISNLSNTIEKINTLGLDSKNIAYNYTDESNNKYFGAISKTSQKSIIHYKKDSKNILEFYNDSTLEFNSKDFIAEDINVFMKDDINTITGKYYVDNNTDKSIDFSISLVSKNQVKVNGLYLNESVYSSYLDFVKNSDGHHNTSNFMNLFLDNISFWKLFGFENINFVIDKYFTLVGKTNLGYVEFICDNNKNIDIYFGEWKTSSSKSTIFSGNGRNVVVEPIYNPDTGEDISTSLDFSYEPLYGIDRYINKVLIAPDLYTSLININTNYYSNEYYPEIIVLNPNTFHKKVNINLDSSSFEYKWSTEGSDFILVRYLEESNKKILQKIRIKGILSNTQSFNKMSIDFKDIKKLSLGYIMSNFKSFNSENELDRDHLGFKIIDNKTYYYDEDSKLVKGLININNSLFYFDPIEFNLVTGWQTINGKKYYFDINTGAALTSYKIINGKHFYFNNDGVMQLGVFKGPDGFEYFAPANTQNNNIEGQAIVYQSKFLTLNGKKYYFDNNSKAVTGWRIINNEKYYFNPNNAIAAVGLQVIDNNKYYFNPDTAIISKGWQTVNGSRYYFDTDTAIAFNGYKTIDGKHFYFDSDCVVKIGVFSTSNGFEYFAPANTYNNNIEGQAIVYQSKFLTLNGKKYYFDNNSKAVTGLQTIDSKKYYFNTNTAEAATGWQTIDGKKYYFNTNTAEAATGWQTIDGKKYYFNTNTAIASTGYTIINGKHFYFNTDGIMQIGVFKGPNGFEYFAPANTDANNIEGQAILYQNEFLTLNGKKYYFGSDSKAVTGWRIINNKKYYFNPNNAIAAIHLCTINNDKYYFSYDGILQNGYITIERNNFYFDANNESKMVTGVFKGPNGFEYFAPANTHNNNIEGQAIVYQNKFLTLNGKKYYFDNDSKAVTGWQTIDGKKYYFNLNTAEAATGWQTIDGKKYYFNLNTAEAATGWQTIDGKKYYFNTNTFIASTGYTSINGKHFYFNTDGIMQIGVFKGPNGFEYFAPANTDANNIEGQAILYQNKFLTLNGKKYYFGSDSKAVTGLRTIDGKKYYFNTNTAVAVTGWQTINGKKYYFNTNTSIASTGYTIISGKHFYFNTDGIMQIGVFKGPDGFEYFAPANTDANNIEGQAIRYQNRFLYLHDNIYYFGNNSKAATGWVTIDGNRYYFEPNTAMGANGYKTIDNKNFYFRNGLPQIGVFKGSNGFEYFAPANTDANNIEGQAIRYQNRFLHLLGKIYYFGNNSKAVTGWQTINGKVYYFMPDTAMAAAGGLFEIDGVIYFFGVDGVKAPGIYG

Binder | binding result
QDWMRRHWGSG (also: on ChemMatrix Aminomethyl bead via GSG linker) [SA2 on ChemMatrix Aminomethyl bead (GSG linker)] | binds
MFWEHRHRGSG (also: on ChemMatrix Aminomethyl bead via GSG linker) [SA4 on ChemMatrix Aminomethyl bead (GSG linker)] | binds
